Reference: publication PMC7700444

Substrate: O=C(O)C(=O)O
Assay: purified protein
Settings: 0.5 mM CoA, 5 mM ATP, 10 mM MgCl2, 2 mM DTT, 0.1 M Tris-HCl or NaPO4 pH 8.0, sodium oxalate as substrate

B1: GsAAE3 (Glycine max) (protein)
chain: MKDTMETPTTLTTLLRHVAAKFPSRRAISVAAKFDLTHSRLHRLVESAAAQLVSAGVKPGDVVALTFPNTIEFVVMFLAVIRARATAAPLNSAYTAEEFEFYLSDSESKLLLTSPEGNKPAQAAASKLSIPHATASITKAENEEAELSLSLLNHPELNSVNSVESLVNDPDDVALFLHTSGTTSRPKGVPLTQYNLLSSVKNIDSVYRLTESDSTVIVLPLFHVHGLIAGLLSSLGAGAAVALPAAGRFSASAFWKDMIKYSATWYTAVPTIHQIILDRHSSNPEPVYPRLRFIRSCSASLAPVILGKLEEAFGAPVLEAYAMTEASHLMASNPLPQDGAHKSGSVGKPVGQEMGILDESGRVQEAGISGEVCIRGSNVTKGYKNNVAANTASFLFDWFHTGDIGYFDSDGYLHLVGRIKELINRGGEKISPIEVDAVLLSHPEIAQAVAFGVPDAKYGEEIYCAVIPREGSNVDEAEVLRFSKTNLASFKVPKKVFITDSLPKTATGKILRRLVAEHFVSQI
B1 was tested, and the Km was 105.10 ± 12.30 µM.
